Changes are numbered by the printed parent chain. Numbers in names are those of the source.

The chains are these.
T1: human MIC-1 receptor (hGFRAL, GDNF family receptor alpha like), full length (human, UniProt Q6UXV0 19-394)
T1 sequence (looked up): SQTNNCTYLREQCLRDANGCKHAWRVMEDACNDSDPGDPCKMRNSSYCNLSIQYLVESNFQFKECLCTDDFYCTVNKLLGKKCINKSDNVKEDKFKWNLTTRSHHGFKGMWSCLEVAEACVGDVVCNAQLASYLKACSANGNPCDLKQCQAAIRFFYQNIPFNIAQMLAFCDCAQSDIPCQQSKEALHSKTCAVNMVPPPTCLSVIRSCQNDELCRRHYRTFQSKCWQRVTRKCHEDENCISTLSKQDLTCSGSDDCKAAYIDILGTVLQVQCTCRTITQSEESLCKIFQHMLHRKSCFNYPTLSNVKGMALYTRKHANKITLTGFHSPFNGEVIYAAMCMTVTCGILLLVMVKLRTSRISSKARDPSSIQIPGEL

B1: SPAGSPTSTEEGTSESATPESGPG-MIC-1(SEQ ID NO: 1) (ligand)
chain: SPAGSPTSTEEGTSESATPESGPGARNGDHCPLGPGRCCRLHTVRASLEDLGWADWVLSPREVQVTMCIGACPSQFRAANMHAQIKTSLHRLKPDTVPAPCCVPASYNPMVLIQKTDTGVSLQTYDDLLAKDCHCI
B2: AASPAGSPTSTEEGTSESATPESGPG-MIC-1(SEQ ID NO: 1) (ligand)
chain: AASPAGSPTSTEEGTSESATPESGPGARNGDHCPLGPGRCCRLHTVRASLEDLGWADWVLSPREVQVTMCIGACPSQFRAANMHAQIKTSLHRLKPDTVPAPCCVPASYNPMVLIQKTDTGVSLQTYDDLLAKDCHCI
B3: (AEE)3AES-MIC-1-Δ1-3 (ligand)
chain: AEEAEEAEEAESGDHCPLGPGRCCRLHTVRASLEDLGWADWVLSPREVQVTMCIGACPSQFRAANMHAQIKTSLHRLKPDTVPAPCCVPASYNPMVLIQKTDTGVSLQTYDDLLAKDCHCI
B4: AAPEDEETPEQE-MIC-1-Δ1-3 (ligand)
chain: B3 chain with E2A, E3P, A4E, E5D, A7E, E8T, E9P, A10E, E11Q, S12E
B5: AAPEDEETPEQEGSGSGSGSGS-MIC-1-Δ1-3 (ligand)
chain: AAPEDEETPEQEGSGSGSGSGSGDHCPLGPGRCCRLHTVRASLEDLGWADWVLSPREVQVTMCIGACPSQFRAANMHAQIKTSLHRLKPDTVPAPCCVPASYNPMVLIQKTDTGVSLQTYDDLLAKDCHCI
B6: AAPDEGTEEETEGSGSGSGSGS-MIC-1-Δ1-3 (ligand)
chain: B5 chain with E4D, D5E, E6G, E7T, T8E, P9E, Q11T
B7: MIC-1(R2A,N3E,H18E) (ligand)
chain: AAEGDHCPLGPGRCCRLETVRASLEDLGWADWVLSPREVQVTMCIGACPSQFRAANMHAQIKTSLHRLKPDTVPAPCCVPASYNPMVLIQKTDTGVSLQTYDDLLAKDCHCI
B8: MIC-1(R2A,N3E,R53E) (ligand)
chain: B7 chain with E18H, R53E
B9: MIC-1(R2A,N3E,L105E) (ligand)
chain: B7 chain with E18H, L105E
B10: MIC-1(R2A,N3E,M57E) (ligand)
chain: B7 chain with E18H, M57E
B11: MIC-1(R2A,N3E,L68E) (ligand)
chain: B7 chain with E18H, L68E
B12: MIC-1(R2A,N3E,R21E) (ligand)
chain: B7 chain with E18H, R21E
B13: MIC-1(R2A,N3E,R67E) (ligand)
chain: B7 chain with E18H, R67E
B14: MIC-1(R2A,N3E,K69E) (ligand)
chain: B7 chain with E18H, K69E
B15: MIC-1(R2A,N3E,A54E) (ligand)
chain: B7 chain with E18H, A54E
B16: MIC-1(R2A,N3E,K107E) (ligand)
chain: B7 chain with E18H, K107E
B17: MIC-1(R2A,N3E,A47E) (ligand)
chain: B7 chain with E18H, A47E
B18: MIC-1(R2A,N3E,P11E) (ligand)
chain: B7 chain with P11E, E18H
B19: AES-MIC-1-Δ1-3 (ligand)
chain: B7 chain with A2E, E3S, E18H
B20: MIC-1(R2A,N3E,P85E) (ligand)
chain: B7 chain with E18H, P85E
B21: MIC-1(R2A,N3E,A30E) (ligand)
chain: B7 chain with E18H, A30E
B22: MIC-1(R2A, N3E) (ligand)
chain: B7 chain with E18H
B23: AASPAGSPTSTEEGTSESATPESGPG-MIC-1-Δ1-3 (ligand)
chain: AASPAGSPTSTEEGTSESATPESGPGGDHCPLGPGRCCRLHTVRASLEDLGWADWVLSPREVQVTMCIGACPSQFRAANMHAQIKTSLHRLKPDTVPAPCCVPASYNPMVLIQKTDTGVSLQTYDDLLAKDCHCI
B24: (AEE)2AES-MIC-1-Δ1-3 (ligand)
chain: AEEAEEAESGDHCPLGPGRCCRLHTVRASLEDLGWADWVLSPREVQVTMCIGACPSQFRAANMHAQIKTSLHRLKPDTVPAPCCVPASYNPMVLIQKTDTGVSLQTYDDLLAKDCHCI
B25: TSESATPESGPGTSESATPESGPG-MIC-1(R2A,N3E) (ligand)
chain: TSESATPESGPGTSESATPESGPGAAEGDHCPLGPGRCCRLHTVRASLEDLGWADWVLSPREVQVTMCIGACPSQFRAANMHAQIKTSLHRLKPDTVPAPCCVPASYNPMVLIQKTDTGVSLQTYDDLLAKDCHCI
B26: (AEE)6AES-MIC-1 (ligand)
chain: AEEAEEAEEAEEAEEAEEAESGDHCPLGPGRCCRLHTVRASLEDLGWADWVLSPREVQVTMCIGACPSQFRAANMHAQIKTSLHRLKPDTVPAPCCVPASYNPMVLIQKTDTGVSLQTYDDLLAKDCHCI
B27: (GEPS)5-MIC-1(SEQ ID NO: 1) (ligand)
chain: GEPSGEPSGEPSGEPSGEPSARNGDHCPLGPGRCCRLHTVRASLEDLGWADWVLSPREVQVTMCIGACPSQFRAANMHAQIKTSLHRLKPDTVPAPCCVPASYNPMVLIQKTDTGVSLQTYDDLLAKDCHCI
B28: …-MIC-1-Δ1-3 (ligand)
chain: SEPATSGSETPGTSTEPSEGSAPGGDHCPLGPGRCCRLHTVRASLEDLGWADWVLSPREVQVTMCIGACPSQFRAANMHAQIKTSLHRLKPDTVPAPCCVPASYNPMVLIQKTDTGVSLQTYDDLLAKDCHCI
B29: (SEPATSGSETPG)2-MIC-1-Δ1-3(M57L) (ligand)
chain: B28 chain with T13S, S14E, T15P, E16A, P17T, E19G, G20S, S21E, A22T, M78L
B30: (SEPATSGSETPG)2-MIC-1-Δ1-3 (ligand)
chain: B28 chain with T13S, S14E, T15P, E16A, P17T, E19G, G20S, S21E, A22T
B31: (SEPATSGSETPG)2-MIC-1-Δ1-3(M57E) (ligand)
chain: B28 chain with T13S, S14E, T15P, E16A, P17T, E19G, G20S, S21E, A22T, M78E
B32: AEEAES-MIC-1-Δ1-3 (ligand)
chain: AEEAESGDHCPLGPGRCCRLHTVRASLEDLGWADWVLSPREVQVTMCIGACPSQFRAANMHAQIKTSLHRLKPDTVPAPCCVPASYNPMVLIQKTDTGVSLQTYDDLLAKDCHCI
B33: (AEE)5AES-MIC-1-Δ1-3 (ligand)
chain: AEEAEEAEEAEEAEEAESGDHCPLGPGRCCRLHTVRASLEDLGWADWVLSPREVQVTMCIGACPSQFRAANMHAQIKTSLHRLKPDTVPAPCCVPASYNPMVLIQKTDTGVSLQTYDDLLAKDCHCI

In the assay the target is T1, human MIC-1 receptor (hGFRAL, GDNF …). In words: cell-based or functional assay.
In the case of B1, the “Emax (%)” value was determined as 100% and the “pERK EC50 (nM)” value was determined as 0.4 nM.
For B2 the same measures were 100% and 0.4 nM.
In the same order, the values of B3 are 100% and 0.5 nM.
For B4 the same measures were 100% and 0.5 nM.
In the case of B5, the “Emax (%)” value is 100% and the “pERK EC50 (nM)” value amounted to 0.5 nM.
In the same order, the values of B6 are 100% and 0.5 nM.
For B7 the same measures were 100% and 0.5 nM.
In the same order, the values of B8 are 100% and 0.4 nM.
Turning to B9, the “Emax (%)” value amounted to 100% and the “pERK EC50 (nM)” value was 0.7 nM.
As for B10, the “Emax (%)” value was found to be 70% and the “pERK EC50 (nM)” value was 0.3 nM.
In the same order, the values of B11 are 100% and 0.8 nM.
Turning to B12, the “Emax (%)” value is 100% and the “pERK EC50 (nM)” value is 0.6 nM.
Take B13: the “Emax (%)” value is 100% and the “pERK EC50 (nM)” value was 0.5 nM.
Take B14: the “Emax (%)” value worked out at 100% and the “pERK EC50 (nM)” value stood at 0.5 nM.
For B15 the same measures were 100% and 0.3 nM.
With B16, the “Emax (%)” value amounted to 100% and the “pERK EC50 (nM)” value came out at 0.3 nM.
As to B17, the “Emax (%)” value worked out at 100% and the “pERK EC50 (nM)” value was 0.4 nM.
For B18, the “Emax (%)” value was determined as 100% and the “pERK EC50 (nM)” value worked out at 0.4 nM.
As for B19, the “Emax (%)” value worked out at 100% and the “pERK EC50 (nM)” value stood at 0.3 nM.
In the same order, the values of B20 are 100% and 0.6 nM.
As to B21, the “Emax (%)” value came to 100% and the “pERK EC50 (nM)” value worked out at 0.7 nM.
B22: the “Emax (%)” value was 100% and the “pERK EC50 (nM)” value was determined as 0.3 nM.
For B23, the “Emax (%)” value turned out to be 100% and the “pERK EC50 (nM)” value is 0.7 nM.
For B24 the same measures were 100% and 0.4 nM.
For B25 the same measures were 100% and 0.3 nM.
For B26, the “Emax (%)” value is 100% and the “pERK EC50 (nM)” value came out at 0.8 nM.
For B27 the same measures were 100% and 0.5 nM.
On to B28, for which the “Emax (%)” value is 100% and the “pERK EC50 (nM)” value came out at 0.7 nM.
For B29 the same measures were 100% and 0.6 nM.
In the same order, the values of B30 are 100% and 0.4 nM.
In the same order, the values of B31 are 60% and 0.6 nM.
As to B32, the “Emax (%)” value turned out to be 100% and the “pERK EC50 (nM)” value was found to be 0.3 nM.
For B33 the same measures were 100% and 0.5 nM.

For the origin of these results see patent publication US20180339057A1 (Novo Nordisk, published 2018).
